Source: publication PMC6620310, “A ubiquitin-like domain is required for stabilizing the N-terminal ATPase module of human SMCHD1” (Communications Biology, 2019)
Positions count from the first letter of the chain named. In names and notes the source's numbering stands.

B1: SMCHD1(24–580/E147A), seleno-methionine-labeled (domain or fragment, human, UniProt A6NHR9 24-580, looked up)
chain: GHRTVYLFDRREKESELGDRPLQVGERSDYAGFRACVCQTLGISPEEKFVITTTSRKEITCDNFDETVKDGVTLYLLQSVNQLLLTATKERIDFLPHYDTLVKSGMYEYYASEGQNPLPFALAALIDNSLSATSRNIGVRRIQIKLLFDETQGKPAVAVIDNGRGMTSKQLNNWAVYRLSKFTRQGDFESDHSGYVRPVPVPRSLNSDISYFGVGGKQAVFFVGQSARMISKPADSQDVHELVLSKEDFEKKEKNKEAIYSGYIRNRKPSDSVHITNDDERFLHHLIIEEKEKDSFTAVVITGVQPEHIQYLKNYFHLWTRQLAHIYHYYIHGPKGNEIRTSKEVEPFNNIDIEISMFEKGKVPKIVNLREIQDDMQTLYVNTAADSFEFKAHVEGDGVVEGIIRYHPFLYDRETYPDDPCFPSKLKDEDDEDDCFILEKAARGKRPIFECFWNGRLIPYTSVEDFDWCTPPKKRGLAPIECYNRISGALFTNDKFQVSTNKLTFMDLELKLKDKNTLFTRILNGQEQRMKIDREFALWLKDCHEKYDKQIKFTLFK
modifications: selenomethionine substituted for methionine
notes: Crystallised as a homodimer with one ATP per monomer; two homodimers in the asymmetric unit; also called SMCHD1 E147A; source: E. coli B834(DE3), purified (glutathione resin, TEV cleavage, Superdex200 with Mg2+/ATP, MonoQ)
B2: SMCHD1(24–580) N139H (domain or fragment, human, UniProt A6NHR9 24-580, looked up)
chain: B1 chain with N116H, A124E
notes: SMCHD1, human, residues 24-580 with the arhinia variant N139H; PDB 6MW7 holds the same limits with E147A; Human disease variant (arhinia); also called p.N139H; source: E. coli Rosetta2(DE3), purified (Glutathione 4B Sepharose, TEV cleavage, Superdex200)
B3: SMCHD1(24–580) H348R (domain or fragment, human, UniProt A6NHR9 24-580, looked up)
chain: B1 chain with A124E, H325R
notes: SMCHD1, human, residues 24-580 with the arhinia variant H348R; PDB 6MW7 holds the same limits with E147A; Human disease variant (arhinia); also called p.H348R; source: E. coli Rosetta2(DE3), purified (Glutathione 4B Sepharose, TEV cleavage, Superdex200)
B4: SMCHD1(24–580) E473Q (domain or fragment, human, UniProt A6NHR9 24-580, looked up)
chain: B1 chain with A124E, E450Q
notes: SMCHD1, human, residues 24-580 with the arhinia variant E473Q; PDB 6MW7 holds the same limits with E147A; Human disease variant (arhinia); also called p.E473Q; source: E. coli Rosetta2(DE3), purified (Glutathione 4B Sepharose, TEV cleavage, Superdex200)
B5: SMCHD1(24–580) T523K (domain or fragment, human, UniProt A6NHR9 24-580, looked up)
chain: B1 chain with A124E, T500K
notes: SMCHD1, human, residues 24-580 with the arhinia variant T523K; PDB 6MW7 holds the same limits with E147A; Human disease variant (arhinia); also called p.T523K; source: E. coli Rosetta2(DE3), purified (Glutathione 4B Sepharose, TEV cleavage, Superdex200)
B6: SMCHD1(24–580) Q345R (domain or fragment, human, UniProt A6NHR9 24-580, looked up)
chain: B1 chain with A124E, Q322R
notes: SMCHD1, human, residues 24-580 with the arhinia variant Q345R; PDB 6MW7 holds the same limits with E147A; Human disease variant (arhinia); also called p.Q345R; source: E. coli Rosetta2(DE3), purified (Glutathione 4B Sepharose, TEV cleavage, Superdex200)
B7: SMCHD1(24–580) S135C (domain or fragment, human, UniProt A6NHR9 24-580, looked up)
chain: B1 chain with S112C, A124E
notes: SMCHD1, human, residues 24-580 with the arhinia variant S135C; PDB 6MW7 holds the same limits with E147A; Human disease variant (arhinia); also called p.S135C; source: E. coli Rosetta2(DE3), purified (Glutathione 4B Sepharose, TEV cleavage, Superdex200)
B8: SMCHD1(24–580) G137E (domain or fragment, human, UniProt A6NHR9 24-580, looked up)
chain: B1 chain with G114E, A124E
notes: SMCHD1, human, residues 24-580 with the variant G137E (implicated in both arhinia and FSHD2); PDB 6MW7 holds the same limits with E147A; Human disease variant (arhinia and FSHD2); also called p.G137E; source: E. coli Rosetta2(DE3), purified (Glutathione 4B Sepharose, TEV cleavage, Superdex200)
B9: SMCHD1(24–580) E473G (domain or fragment, human, UniProt A6NHR9 24-580, looked up)
chain: B1 chain with A124E, E450G
notes: SMCHD1, human, residues 24-580 with the arhinia variant E473G; PDB 6MW7 holds the same limits with E147A; Human disease variant (arhinia); also called p.E473G; source: E. coli Rosetta2(DE3), purified (Glutathione 4B Sepharose, TEV cleavage, Superdex200)

Key:
[1] = biological target: the molecule itself; test: crystal structure; seleno-methionine protein at 8.5 mg/ml with 5 mM Mg2+/ATP, sitting drop; SAD phasing, 2.2 Å
[2] = biological target: the molecule itself; test: native gel or EMSA; blue-native PAGE, 4–16% Bis-Tris; 2.2 µg/µl protein incubated with 5 mM MgCl2 and ATP 30 min on ice; 1 mM MgCl2 and 1 mM ATP in the running buffers; monomer and dimer bands quantified
[3] = biological target: the molecule itself; test: cross-linking; glutaraldehyde (final 0.0125%), protein at 2 mg/mL in 20 mM HEPES pH 7.5, 100 mM NaCl, 10% glycerol with 5 mM MgCl2 and 5 mM ATP, 40 min at room temperature, diluted 6.25-fold; SDS-PAGE

| Protein | binding result [2] | other results |
| --- | --- | --- |
| B1 | – | binding result [1]: binds |
| B2 | binds | – |
| B3 | binds | – |
| B4 | binds | – |
| B5 | binds | – |
| B6 | – | binding result [3]: binds |
| B7 | binds | – |
| B8 | binds | – |
| B9 | binds | – |
